Assay results published in patent publication US20250313626A1 (HARBOUR BIOMED SHANGHAI, published 2025).

Target: T1, CD200R1a on PathHunter Jurkat CD200R1a signaling cells (Eurofins DiscoverX, 93-1136C19) (human, UniProt Q8TD46 25-348)
T1 sequence: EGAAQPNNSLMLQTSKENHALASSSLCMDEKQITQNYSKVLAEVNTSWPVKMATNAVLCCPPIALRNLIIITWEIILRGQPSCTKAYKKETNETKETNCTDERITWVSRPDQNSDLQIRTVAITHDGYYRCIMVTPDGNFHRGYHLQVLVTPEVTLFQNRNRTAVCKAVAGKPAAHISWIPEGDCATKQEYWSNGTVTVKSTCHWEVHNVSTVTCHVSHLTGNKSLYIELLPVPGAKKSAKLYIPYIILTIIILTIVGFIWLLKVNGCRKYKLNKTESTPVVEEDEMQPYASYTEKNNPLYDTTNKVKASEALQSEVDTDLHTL
Assay: cell-based or functional assay

B1: PR007973 (antibody, human IgG1, kappa, V domains shown)
VH: QVQLVESGGGVVQPGRSLRLSCAASGFTFSSYGFHWVRQAPGKGLEWLGIIWSDASNKYYADSVKGRFTISRDNSKNTLYLQMNSLRAEDTAVYYCARDRIVGEGFDYWGQGTLVTVSS
VL: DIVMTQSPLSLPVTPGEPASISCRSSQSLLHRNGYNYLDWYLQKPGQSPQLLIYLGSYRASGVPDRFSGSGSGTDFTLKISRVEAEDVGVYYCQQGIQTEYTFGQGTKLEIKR
notes: PTM variant of PR006839 (human IgG1)
IC50 of the inhibition of CD200-induced PathHunter Jurkat CD200R1a luminescence (CHOK1/hCD200 cells as CD200 source): 706 pM
